± gives the standard error. Fewer inactive variants are shown than the library holds.
B1: glmS ribozyme (parent)
chain: AUAAAAGCGCCAGAACUACAGAAAUGUAGUUGACGAGGAGGAGGUUUAUCGAAUUUUCGGCGGAUGCCUCCAAA

Columns and labels:
Conditions in all cases: with glucosamine-6-phosphate
glucosamine-6-phosphate [1] = variants of: B1; assay: self-cleavage kobs at 40 uM GlcN6P; higher = faster cleavage; RNA array
How it was run: (§1)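 Glucosamine-6-phosphate, from 40 μM to 10 mM in HEPES/KCl/Mg(OAc)2 buffer, was flowed over sequenced MiSeq chips carrying barcoded ribozyme variants transcribed in situ by E. coli RNA polymerase. A hybridised Cy3 probe tracked the variants at 37 °C as tiles were imaged over ~14 h. kobs, kcat and KM were obtained by fitting normalised per-tile medians to exponential decays and then applying weighted Michaelis–Menten fits across concentrations.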

glucosamine-6-phosphate [2] = variants of: B1; assay: self-cleavage kobs at 2500 uM GlcN6P; higher = faster cleavage; RNA array
How it was run: as §1

glucosamine-6-phosphate [3] = variants of: B1; assay: self-cleavage kobs at 640 uM GlcN6P; higher = faster cleavage; RNA array
How it was run: as §1

glucosamine-6-phosphate [4] = variants of: B1; assay: self-cleavage kobs at 10000 uM GlcN6P; higher = faster cleavage; RNA array
How it was run: as §1

glucosamine-6-phosphate [5] = variants of: B1; assay: self-cleavage kobs at 160 uM GlcN6P; higher = faster cleavage; RNA array
How it was run: as §1

Variant	self-cleavage kobs at 40 uM GlcN6P (glucosamine-6-phosphate [1]) [s⁻¹]	self-cleavage kobs at 2500 uM GlcN6P (glucosamine-6-phosphate [2]) [s⁻¹]	self-cleavage kobs at 640 uM GlcN6P (glucosamine-6-phosphate [3]) [s⁻¹]	self-cleavage kobs at 10000 uM GlcN6P (glucosamine-6-phosphate [4]) [s⁻¹]	self-cleavage kobs at 160 uM GlcN6P (glucosamine-6-phosphate [5]) [s⁻¹]
A42G U47G C61U U69G	< 1e-05	< 1e-05			
G9C G62A	< 1e-05		< 1e-05	< 1e-05	
A6C A12U A42U	< 1e-05		< 1e-05	< 1e-05	
A6U A36U C70U	< 1e-05				
A39G C61U	< 1e-05			3.27e-05 ± 1.1e-05	
A14U C50U G59C C70U	< 1e-05				
C10U A15C C34A A36G G43C U49C	< 1e-05	< 1e-05		< 1e-05	< 1e-05
A15G U30A G41A G51U G62A	< 1e-05	< 1e-05			
G43A U47G	< 1e-05		< 1e-05		
A36G U47C	< 1e-05			< 1e-05	
A6G A15G G66U C70U	< 1e-05				
U31C C34A C68U	< 1e-05			< 1e-05	
G37U U65G G66U	< 1e-05				
C11G A42G	< 1e-05		< 1e-05		< 1e-05
A6U A33U G38U	< 1e-05		< 1e-05		< 1e-05
C11G G32A	< 1e-05		< 1e-05	< 1e-05	< 1e-05
C11A C50G G62U	0.000115 ± 2.8e-05			0.000116 ± 2.6e-05	
G26A C67U	0.000613 ± 0.00023				
G37U C58A G60C C70A	< 1e-05			< 1e-05	
C10A A14C	< 1e-05	< 1e-05	< 1e-05		
C10A A14U	< 1e-05		< 1e-05		
C10G G32C A48U	< 1e-05			< 1e-05	
G51U G60U	< 1e-05	< 1e-05	< 1e-05	< 1e-05	< 1e-05
A53G U57C G63U	< 1e-05			< 1e-05	
A52C G60C	< 1e-05	< 1e-05	< 1e-05	< 1e-05	< 1e-05
A64U C71A	< 1e-05			3.22e-05 ± 1.4e-05	

Variant	self-cleavage kobs at 40 uM GlcN6P (glucosamine-6-phosphate [1]) [s⁻¹]	self-cleavage kobs at 2500 uM GlcN6P (glucosamine-6-phosphate [2]) [s⁻¹]	self-cleavage kobs at 640 uM GlcN6P (glucosamine-6-phosphate [3]) [s⁻¹]	self-cleavage kobs at 10000 uM GlcN6P (glucosamine-6-phosphate [4]) [s⁻¹]	self-cleavage kobs at 160 uM GlcN6P (glucosamine-6-phosphate [5]) [s⁻¹]
G29U G62C	< 1e-05	< 1e-05	< 1e-05	< 1e-05	
A12U C16U	0.00238 ± 0.0003	0.076 ± 0.027	0.0232 ± 0.0037	0.0879 ± 0.035	0.00439 ± 0.00083
G60A G62C	< 1e-05	< 1e-05			< 1e-05
A6C U46G	< 1e-05				< 1e-05
A15G G38A A42G	< 1e-05		< 1e-05		< 1e-05
C34G G41U U49G A52C A64C	< 1e-05				
C8U G13U A39C	< 1e-05				
C34A G60A C71A	< 1e-05			< 1e-05	
A6C G37A	< 1e-05	< 1e-05		< 1e-05	< 1e-05
A6U G44C C50A	< 1e-05				
A12C U31C A39C U57G C67A	< 1e-05			< 1e-05	
C11G A14G A39U	< 1e-05				
A42C U65G C70G C71G	< 1e-05				
C10G A15G A64G	< 1e-05				
A6C U30G C50G U56C C68A	7.1e-05 ± 2.5e-05			0.000356 ± 0.00016	
U47C G62A	< 1e-05			< 1e-05	
G13U C50G C70G	7.6e-05 ± 2.2e-05	0.000166 ± 3.6e-05	8.28e-05 ± 1.7e-05	6.1e-05 ± 1.2e-05	0.000214 ± 5.6e-05
C11U A12U G43A C61G	< 1e-05			< 1e-05	
G32U G38C	< 1e-05				
A33G A39G G60U	< 1e-05	< 1e-05		< 1e-05	
G41A G62U	< 1e-05		< 1e-05	< 1e-05	< 1e-05
A14G U54G	0.00166 ± 0.00021		0.0114 ± 0.003	0.023 ± 0.0048	0.0021 ± 0.00047
C11U G41U A64U	< 1e-05	< 1e-05		< 1e-05	< 1e-05
G43A U49G	< 1e-05	< 1e-05	< 1e-05		< 1e-05
A6G U46G C50G U65G C70A	< 1e-05				
G38U U46C	< 1e-05	< 1e-05			

Variant	self-cleavage kobs at 40 uM GlcN6P (glucosamine-6-phosphate [1]) [s⁻¹]	self-cleavage kobs at 2500 uM GlcN6P (glucosamine-6-phosphate [2]) [s⁻¹]	self-cleavage kobs at 640 uM GlcN6P (glucosamine-6-phosphate [3]) [s⁻¹]	self-cleavage kobs at 10000 uM GlcN6P (glucosamine-6-phosphate [4]) [s⁻¹]	self-cleavage kobs at 160 uM GlcN6P (glucosamine-6-phosphate [5]) [s⁻¹]
A42U G59U	< 1e-05		< 1e-05	< 1e-05	< 1e-05
A14U G29C G38U C50G	0.000223 ± 7.2e-05			7.38e-05 ± 1.8e-05	
G9A A53U	< 1e-05		< 1e-05		< 1e-05
U30C C61A	< 1e-05			< 1e-05	
G41U C50G	< 1e-05		< 1e-05	< 1e-05	
A12G A52C C67G C71U	< 1e-05	< 1e-05			
C8G A39C U55G G59U	< 1e-05			< 1e-05	
A39G G43U G44U U55G	< 1e-05	< 1e-05	< 1e-05	< 1e-05	
A42G U47G G63U	< 1e-05				
C34U G59C C71G	< 1e-05			< 1e-05	
A5U A6C A12G G32A G51U	< 1e-05			< 1e-05	
G43U G62U	< 1e-05	< 1e-05		< 1e-05	
U31G C70U	0.000479 ± 7.2e-05	0.0117 ± 0.0029	0.0023 ± 0.00038	0.0305 ± 0.0058	0.00104 ± 0.0002
U47C C58U C71U	< 1e-05			3.48e-05 ± 1.1e-05	
U30G A33U U56A G63U G66U	< 1e-05			< 1e-05	
G38U G41A U69G	< 1e-05	< 1e-05	< 1e-05		< 1e-05
G7A A33C	< 1e-05		< 1e-05	< 1e-05	< 1e-05
G37C U45C G59U C68G	< 1e-05		< 1e-05	< 1e-05	
A6C A14C A39G C50A	< 1e-05				
G9U A64G	< 1e-05			< 1e-05	< 1e-05
A15G A33G G41C	< 1e-05			< 1e-05	
G41A C58A	< 1e-05		< 1e-05		
A42G G60A C70G	< 1e-05				
G9A G32A	< 1e-05	< 1e-05	< 1e-05	< 1e-05	
A33C U45C	< 1e-05			4.65e-05 ± 1.3e-05	
C50G C67A C71A	5.33e-05 ± 1.4e-05	8.26e-05 ± 1.6e-05	0.0002 ± 3.8e-05	6e-05 ± 1.6e-05	0.000226 ± 3.6e-05

Variant	self-cleavage kobs at 40 uM GlcN6P (glucosamine-6-phosphate [1]) [s⁻¹]	self-cleavage kobs at 2500 uM GlcN6P (glucosamine-6-phosphate [2]) [s⁻¹]	self-cleavage kobs at 640 uM GlcN6P (glucosamine-6-phosphate [3]) [s⁻¹]	self-cleavage kobs at 10000 uM GlcN6P (glucosamine-6-phosphate [4]) [s⁻¹]	self-cleavage kobs at 160 uM GlcN6P (glucosamine-6-phosphate [5]) [s⁻¹]
G9A A39G	< 1e-05				< 1e-05
G7C C8G C50G U55A	7.03e-05 ± 2.9e-05				
G7U A52G C71U	< 1e-05				
G9A G59U A64U U65C	< 1e-05			< 1e-05	
U30G A64U	< 1e-05				< 1e-05
A6G C11A C50G C58U	0.000139 ± 2.5e-05				
A33G G41C U47C	< 1e-05	< 1e-05	< 1e-05		
A6C G13C C68G	< 1e-05	< 1e-05			
A36U G59C	< 1e-05		< 1e-05	< 1e-05	
G7U C11G A12C A42U	< 1e-05	< 1e-05			
G9U G35C G66U	< 1e-05			< 1e-05	
A12C G32A A48G	< 1e-05				
G37A G38A G41A	< 1e-05			< 1e-05	
G7C G32A	< 1e-05			< 1e-05	< 1e-05
C10A C16A G41U	< 1e-05			< 1e-05	
A39G A42C U69G C70A	< 1e-05				
G7U U45G C61A	< 1e-05			< 1e-05	
C10U A12U G51U U56A	< 1e-05			< 1e-05	
A12U G13A U47C A53G	< 1e-05				
C16G U31C G37C A53G	< 1e-05				
A14U C16U C70U	0.000248 ± 7.9e-05	0.00092 ± 0.0002		0.00877 ± 0.0026	
C11A G29U G59U	0.000103 ± 2.9e-05				
G9C G59U	< 1e-05	< 1e-05	< 1e-05		< 1e-05
A6G G29A C34G	< 1e-05	< 1e-05	< 1e-05	< 1e-05	
G9U A53U	< 1e-05		< 1e-05	< 1e-05	< 1e-05
U49G C61A G62U	< 1e-05	< 1e-05	< 1e-05	< 1e-05	

— the supplement of paper PMC7125110
